According to the supplement of paper PMC9112550, “Optimization of the antimicrobial peptide Bac7 by deep mutational scanning” (BMC Biology, 2022):

Test system: Escherichia coli TOP10
Assay: shrunken log2 fold change of peptide-encoding DNA abundance (4.5 h post-induction vs induction); higher = less antimicrobial activity (less host growth inhibition)
Details: time post-induction: 4.5 h; library: site-saturation at positions 5, 18, 19, 20
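Also: peptides expressed intracellularly from a pBAD plasmid library in pooled LB shake-flask culture, induced with 0.3% L-arabinose, DNA abundance read by NGS, three biological replicates, DESeq2 with apeglm shrinkage.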

| Sequence | shrunken log2 fold change |
| --- | --- |
| RRIRERPPRLPRPRPRPNMMPRP | -0.612 |
| RRIRYRPPRLPRPRPRPRRMPRP | -0.0427 |
| RRIRSRPPRLPRPRPRPPQGPRP | 0.39 |
| RRIRYRPPRLPRPRPRPKHMPRP | -0.991 |
| RRIRLRPPRLPRPRPRPLEAPRP | 0.41 |
| RRIRERPPRLPRPRPRPFYRPRP | -0.111 |
| RRIRGRPPRLPRPRPRPGHFPRP | -0.0383 |
| RRIRNRPPRLPRPRPRPKTQPRP | -0.0734 |
| RRIRNRPPRLPRPRPRPHGPPRP | 0.115 |
| RRIRTRPPRLPRPRPRPRGMPRP | 0.24 |
| RRIRARPPRLPRPRPRPNLFPRP | -0.0329 |
| RRIRDRPPRLPRPRPRPLTTPRP | 0.135 |
| RRIRERPPRLPRPRPRPRSMPRP | -0.212 |
| RRIRMRPPRLPRPRPRPGSWPRP | 0.858 |
| RRIRQRPPRLPRPRPRPEAAPRP | 0.751 |
| RRIRGRPPRLPRPRPRPEQIPRP | 0.438 |
| RRIRARPPRLPRPRPRPRHTPRP | 0.419 |
| RRIRDRPPRLPRPRPRPAVTPRP | -0.0403 |
| RRIRGRPPRLPRPRPRPNYAPRP | 0.0408 |
| RRIRRRPPRLPRPRPRPGIFPRP | -0.174 |
| RRIRLRPPRLPRPRPRPGYEPRP | -0.11 |
| RRIRIRPPRLPRPRPRPMVRPRP | -0.0105 |
| RRIRNRPPRLPRPRPRPTRMPRP | 0.245 |
| RRIRTRPPRLPRPRPRPAGWPRP | 0.517 |
| RRIRKRPPRLPRPRPRPIDQPRP | 0.122 |

| Sequence | shrunken log2 fold change |
| --- | --- |
| RRIRPRPPRLPRPRPRPHQQPRP | -0.14 |
| RRIRPRPPRLPRPRPRPICRPRP | -0.276 |
| RRIRIRPPRLPRPRPRPSGGPRP | 0.0858 |
| RRIRIRPPRLPRPRPRPRPWPRP | 0.154 |
| RRIRTRPPRLPRPRPRPSSWPRP | 0.131 |
| RRIRKRPPRLPRPRPRPGWRPRP | 0.348 |
| RRIRQRPPRLPRPRPRPIPPPRP | 0.0581 |
| RRIRIRPPRLPRPRPRPNVAPRP | 0.00755 |
| RRIRFRPPRLPRPRPRPVNMPRP | -1.23 |
| RRIRQRPPRLPRPRPRPNFTPRP | -0.186 |
| RRIRVRPPRLPRPRPRPTYCPRP | -0.327 |
| RRIRERPPRLPRPRPRPHQMPRP | -0.0399 |
| RRIRMRPPRLPRPRPRPSSPPRP | 0.16 |
| RRIRIRPPRLPRPRPRPAQSPRP | 0.227 |
| RRIRRRPPRLPRPRPRPYQVPRP | -0.0648 |
| RRIRMRPPRLPRPRPRPSKWPRP | -0.104 |
| RRIRQRPPRLPRPRPRPDTYPRP | -0.154 |
| RRIRFRPPRLPRPRPRPPIGPRP | -0.229 |
| RRIRVRPPRLPRPRPRPSGPPRP | -0.119 |
| RRIRTRPPRLPRPRPRPVAAPRP | 0.389 |
| RRIRIRPPRLPRPRPRPMLEPRP | 0.0741 |
| RRIRPRPPRLPRPRPRPMGEPRP | -0.231 |
| RRIRFRPPRLPRPRPRPRMAPRP | 0.375 |
| RRIRGRPPRLPRPRPRPPIAPRP | 0.874 |
| RRIRNRPPRLPRPRPRPQIWPRP | 0.0573 |

| Sequence | shrunken log2 fold change |
| --- | --- |
| RRIRRRPPRLPRPRPRPGWHPRP | 0.176 |
| RRIRCRPPRLPRPRPRPYFVPRP | -1.13 |
| RRIRLRPPRLPRPRPRPNYAPRP | -0.0328 |
| RRIRMRPPRLPRPRPRPTLNPRP | 0.299 |
| RRIRNRPPRLPRPRPRPEARPRP | -0.0678 |
| RRIRMRPPRLPRPRPRPHRQPRP | 0.532 |
| RRIRIRPPRLPRPRPRPWNIPRP | -0.0297 |
| RRIRARPPRLPRPRPRPPQLPRP | 0.753 |
| RRIRQRPPRLPRPRPRPVFAPRP | 0.164 |
| RRIRWRPPRLPRPRPRPPEDPRP | 0.235 |
| RRIRTRPPRLPRPRPRPWFRPRP | -0.128 |
| RRIRPRPPRLPRPRPRPNRRPRP | -0.0942 |
| RRIRMRPPRLPRPRPRPHPSPRP | -0.127 |
| RRIRRRPPRLPRPRPRPTCYPRP | -0.242 |
| RRIRHRPPRLPRPRPRPTYCPRP | -0.129 |
| RRIRERPPRLPRPRPRPRDNPRP | -0.321 |
| RRIRFRPPRLPRPRPRPIPFPRP | 2.3 |
| RRIRCRPPRLPRPRPRPWKNPRP | 0.0137 |
| RRIRTRPPRLPRPRPRPSSEPRP | -0.0162 |
| RRIRDRPPRLPRPRPRPDLQPRP | 1.54 |
| RRIRSRPPRLPRPRPRPDTQPRP | -0.00981 |
| RRIRGRPPRLPRPRPRPCAQPRP | 1.07 |
| RRIRFRPPRLPRPRPRPEWVPRP | -0.0753 |
| RRIRKRPPRLPRPRPRPDSMPRP | 0.0692 |
| RRIRSRPPRLPRPRPRPGQNPRP | 0.323 |

| Sequence | shrunken log2 fold change |
| --- | --- |
| RRIRHRPPRLPRPRPRPDIWPRP | -0.11 |
| RRIRMRPPRLPRPRPRPLNAPRP | 0.35 |
| RRIRGRPPRLPRPRPRPLPFPRP | -0.0338 |
| RRIRTRPPRLPRPRPRPFEWPRP | -0.0651 |
| RRIRTRPPRLPRPRPRPTMPPRP | -0.0706 |
| RRIRLRPPRLPRPRPRPARPPRP | 0.449 |
| RRIRIRPPRLPRPRPRPPSIPRP | 0.122 |
| RRIRDRPPRLPRPRPRPIMNPRP | 0.0718 |
| RRIRARPPRLPRPRPRPEGLPRP | 0.527 |
| RRIRKRPPRLPRPRPRPPSQPRP | 0.866 |
| RRIRSRPPRLPRPRPRPMAPPRP | 0.257 |
| RRIRIRPPRLPRPRPRPMATPRP | -0.0167 |
| RRIRSRPPRLPRPRPRPAMWPRP | 0.0276 |
| RRIRPRPPRLPRPRPRPELCPRP | 0.277 |
| RRIRIRPPRLPRPRPRPFSQPRP | -0.52 |
| RRIRRRPPRLPRPRPRPFCSPRP | -0.0439 |
| RRIRMRPPRLPRPRPRPGGKPRP | 0.583 |
| RRIRQRPPRLPRPRPRPVHCPRP | -0.166 |
| RRIRGRPPRLPRPRPRPYHGPRP | -0.459 |
| RRIRCRPPRLPRPRPRPDKEPRP | -0.00172 |
| RRIRDRPPRLPRPRPRPFGMPRP | -0.0413 |
| RRIRYRPPRLPRPRPRPETMPRP | -0.062 |
| RRIRERPPRLPRPRPRPGVSPRP | -0.00674 |
| RRIRRRPPRLPRPRPRPAFIPRP | 0.115 |
| RRIRVRPPRLPRPRPRPNRPPRP | -0.262 |

| Sequence | shrunken log2 fold change |
| --- | --- |
| RRIRQRPPRLPRPRPRPAQRPRP | 0.302 |
| RRIRKRPPRLPRPRPRPIKKPRP | -0.077 |
| RRIRSRPPRLPRPRPRPKKRPRP | 0.716 |
| RRIRFRPPRLPRPRPRPEQAPRP | -0.0421 |
| RRIRYRPPRLPRPRPRPQCHPRP | -0.198 |
| RRIRWRPPRLPRPRPRPQHHPRP | -0.475 |
| RRIRSRPPRLPRPRPRPQWRPRP | 0.11 |
| RRIRQRPPRLPRPRPRPDGCPRP | -0.103 |
| RRIRSRPPRLPRPRPRPPYSPRP | -0.379 |
| RRIRFRPPRLPRPRPRPRCCPRP | 0.164 |
| RRIRWRPPRLPRPRPRPEITPRP | 0.437 |
| RRIRNRPPRLPRPRPRPYKRPRP | -1.27 |
| RRIRARPPRLPRPRPRPACHPRP | 0.371 |
| RRIRTRPPRLPRPRPRPAHLPRP | -0.000138 |
| RRIRWRPPRLPRPRPRPNKHPRP | -0.281 |
| RRIRMRPPRLPRPRPRPWDPPRP | 0.287 |
| RRIRKRPPRLPRPRPRPDHCPRP | 0.00904 |
| RRIRKRPPRLPRPRPRPNCEPRP | 0.082 |
| RRIRPRPPRLPRPRPRPVTGPRP | -0.0902 |
| RRIRTRPPRLPRPRPRPCCWPRP | 0.0822 |
| RRIRKRPPRLPRPRPRPQGVPRP | -0.0162 |
| RRIRYRPPRLPRPRPRPAMRPRP | 0.372 |
| RRIRVRPPRLPRPRPRPMQIPRP | -0.0185 |
| RRIRDRPPRLPRPRPRPYINPRP | -0.108 |
| RRIRCRPPRLPRPRPRPKYAPRP | -0.0494 |

| Sequence | shrunken log2 fold change |
| --- | --- |
| RRIRVRPPRLPRPRPRPWCFPRP | -0.0951 |
| RRIRGRPPRLPRPRPRPATTPRP | 0.871 |
| RRIRIRPPRLPRPRPRPKSGPRP | -0.128 |
| RRIRVRPPRLPRPRPRPYEMPRP | -0.311 |
| RRIRCRPPRLPRPRPRPNDGPRP | -0.00783 |
| RRIRSRPPRLPRPRPRPGGIPRP | 0.274 |
| RRIRARPPRLPRPRPRPSKVPRP | -0.0951 |
| RRIRMRPPRLPRPRPRPFIWPRP | 0.0163 |
| RRIRLRPPRLPRPRPRPCINPRP | -0.209 |
| RRIRERPPRLPRPRPRPAFNPRP | 0.495 |
| RRIRGRPPRLPRPRPRPAKNPRP | 0.554 |
| RRIRRRPPRLPRPRPRPSPKPRP | 0.127 |
| RRIRYRPPRLPRPRPRPFNPPRP | -0.0161 |
| RRIRPRPPRLPRPRPRPDVMPRP | 0.16 |
| RRIRFRPPRLPRPRPRPMKNPRP | -0.0862 |
| RRIRIRPPRLPRPRPRPINQPRP | -0.345 |
| RRIRMRPPRLPRPRPRPHMQPRP | -0.122 |
| RRIRLRPPRLPRPRPRPVLPPRP | -0.0546 |
| RRIRLRPPRLPRPRPRPPFLPRP | 0.105 |
| RRIRGRPPRLPRPRPRPNILPRP | 0.199 |
| RRIRLRPPRLPRPRPRPFWTPRP | 0.0168 |
| RRIRIRPPRLPRPRPRPHIYPRP | 0.13 |
| RRIRIRPPRLPRPRPRPPHHPRP | -0.242 |
| RRIRYRPPRLPRPRPRPALWPRP | -0.0105 |
| RRIRIRPPRLPRPRPRPYVEPRP | -0.0566 |
